Measured values as given in paper PMC11969024 (2025).

B1: peptide HD2 (from tick evasin EVA4) / CCL11 (biotinylated, synthetic) (parent complex)
chain 1: EEDDYTAYAPLTCYFT
chain 2: not shown

Variants of: B1

In order of falling enrichment:
1. chain 1 A7D  2.81 log2 (difference from the parental peptide)
2. chain 1 E1D  2.04 log2 (difference from the parental peptide)
3. chain 1 A7K  1.27 log2 (difference from the parental peptide)
4. chain 1 T16I  0.443 log2 (difference from the parental peptide)
5. chain 1 F15D  -0.00314 log2 (difference from the parental peptide)
6. chain 1 F15Q  -0.31 log2 (difference from the parental peptide)
7. chain 1 L11F  -0.71 log2 (difference from the parental peptide)
8. chain 1 T12N  -0.967 log2 (difference from the parental peptide)
9. chain 1 E1Y  -1.08 log2 (difference from the parental peptide)
10. chain 1 T12S  -1.64 log2 (difference from the parental peptide)
11. chain 1 E2S  -1.71 log2 (difference from the parental peptide)
12. chain 1 E2M  -1.91 log2 (difference from the parental peptide)
13. chain 1 D3F  -1.93 log2 (difference from the parental peptide)
14. chain 1 Y14H  -2.21 log2 (difference from the parental peptide)
15. chain 1 T12D  -2.24 log2 (difference from the parental peptide)
16. chain 1 L11E  -2.74 log2 (difference from the parental peptide)
17. chain 1 T12W  -2.96 log2 (difference from the parental peptide)
18. chain 1 F15R  -3.27 log2 (difference from the parental peptide)
19. chain 1 T12R  -3.61 log2 (difference from the parental peptide)
20. chain 1 A9H  -4.7 log2 (difference from the parental peptide)
21. chain 1 Y5I  -4.75 log2 (difference from the parental peptide)
22. chain 1 T6P  -4.98 log2 (difference from the parental peptide)
23. chain 1 Y14S  -5.39 log2 (difference from the parental peptide)
24. chain 1 Y14C  -5.72 log2 (difference from the parental peptide)
25. chain 1 P10W  -7.42 log2 (difference from the parental peptide)
26. chain 1 C13F  -7.62 log2 (difference from the parental peptide)
27. chain 1 Y14K  -7.74 log2 (difference from the parental peptide)
28. chain 1 A9F  -8.22 log2 (difference from the parental peptide)
